These results are taken from patent publication US20110212476A1.

The target of this assay is Gαi1 R178M/A326S (human). Put plainly: cell-based or functional assay.
Sequence of Gαi1 R178M/A326S (human) (B2RSH2 2-354 R178M/A326S): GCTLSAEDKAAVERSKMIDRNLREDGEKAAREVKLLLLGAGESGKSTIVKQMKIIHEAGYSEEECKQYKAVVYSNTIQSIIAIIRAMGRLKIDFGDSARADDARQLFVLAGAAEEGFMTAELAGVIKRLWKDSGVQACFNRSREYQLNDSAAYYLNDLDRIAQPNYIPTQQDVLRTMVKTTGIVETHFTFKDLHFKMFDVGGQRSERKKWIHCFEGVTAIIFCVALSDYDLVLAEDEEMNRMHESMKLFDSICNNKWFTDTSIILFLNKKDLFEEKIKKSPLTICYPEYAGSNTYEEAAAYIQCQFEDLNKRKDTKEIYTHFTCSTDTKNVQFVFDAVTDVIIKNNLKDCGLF

B1: RGS21 (wild type RGS domain) (protein)
chain: NMDTLLANQAGLDAFRIFLKSEFSEENVEFWLACEDFKKTKNADKIASKAKMIYSEFIEADAPKEINIDFGTRDLISKNIAEPTLKCFDEAQKLIYCLMAKDSFPRFLKSEIYKKLV
Regarding B1, the stimulation of GTPase activity is 8.8 fold.
